From patent publication US12338281B2, “Anti-adrenomedullin antibodies and pharmaceutical compositions thereof” (ADRENOMED AG, priority 2011, dated 2025)

What was measured:
hADM = target: T1, hADM (Homo sapiens, UniProt P35318); assay: Stability of human Adrenomedullin in human citrate plasma, quantified by hADM immunoassay; format: in vitro ADME; conditions: 10 nM hADM, 24° C., NT-H 100 μg/ml
T1 sequence (P35318 95-146 limits assumed): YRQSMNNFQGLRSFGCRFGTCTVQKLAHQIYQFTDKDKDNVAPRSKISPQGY

Human ADM 1-52 = target: T2, Human ADM 1-52 (Homo sapiens, UniProt P35318); assay: Human recombinant Adrenomedullin receptor (CRLR+RAMP3) cAMP functional assay (Adrenomedullin Bioassay) in CHO-K1 cells, agonist human ADM; format: cell-based; conditions: Table 3; 5.63 nM Human ADM 1-52; antibody 0.16-100 μg/ml
T2 construct: host or cells: the receptor chains are made by transfected CHO-K1 cells (FAST-027C); ADM is an added peptide
T2 sequence (P35318 95-146): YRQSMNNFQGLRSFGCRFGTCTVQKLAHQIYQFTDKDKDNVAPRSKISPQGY
Method: The effect of selected ADM-antibodies on ADM-bioactivity was tested in an human recombinant Adrenomedullin receptor cAMP functional assay (Adrenomedullin Bioassay).
• Cell line: CHO-K1 • Receptor: Adrenomedullin (CRLR+RAMP3) • Receptor Accession Number Cell line: CRLR: U17473; RAMP3: AJ001016
Dose response curves were performed in parallel with the reference agonists (hADM or mADM).
For antagonist testing, 6 μl of the reference agonist (human (5.63 nM) or mouse (0.67 nM) adrenomedullin) was mixed with 6 μl of the test samples at different antagonist dilutions; or with 6 μl buffer. After incubation for 60 min at room temperature, 12 μl of cells (2,500 cells/well) were added. The plates were incubated for 30 min at room temperature.
The anti-h-ADM antibodies (NT-H, MR-H, CT-H) were tested for antagonist activity in human recombinant adrenomedullin receptor (FAST-027C) cAMP functional assay in the presence of 5.63 nM Human ADM 1-52, at the following final antibody concentrations: 100 μg/ml, 20 μg/ml, 4 μg/ml, 0.8 μg/ml, 0.16 μg/ml.

half life of hADM in the presence of NT-H (hADM): 18.3 h
Maximal inhibition of ADM bioactivity (ADM-Bioassay) (%) (Human ADM 1-52): 38%
B1: NT-H: mouse monoclonal antibody raised against human ADM 1-21, … (SEQ ID: 15) (antibody, V domains shown)
VH: QVQLQQSGAELMKPGASVKISCKATGYTFSRYWIEWVKQRPGHGLEWIGEILPGSGSTNYNEKFKGKATITADTSSNTAYMQLSSLTSEDSAVYYCTEGYEYDGFDYWGQGTTLTVSS
VL: DVLLSQTPLSLPVSLGDQATISCRSSQSIVYSNGNTYLEWYLQKPGQSPKLLIYRVSNRFSGVPDRFSGSGSGTDFTLKISRVEAEDLGVYYCFQGSHIPYTFGGGTKLEIK
